Test results reported in US8647868B2, “Compositions and methods for increasing production of recombinant gamma-carboxylated proteins” (Wake Forest University Health Sciences, priority 2005, dated 2014).

B1: reduced RNAse: bovine ribonuclease B reduced with DTT; used to trigger VKOR activity (protein, UniProt P61823 27-150, looked up)
Ribonuclease pancreatic: KETAAAKFERQHMDSSTSAASSSNYCNQMMKSRNLTKDRCKPVNTFVHESLADVQAVCSQKNVACKNGQTNCYQSYSTMSITDCRETGSSKYPNCAYKTTQANKHIIVACEGNPYVPVHFDASV
modifications: reduced with DTT

Assays:
blood clotting activity = assay: Blood clotting activity (APTT) of purified r-hFIX; assay type: biochemical, human; details: purified from medium of 200 nM siRNA SMART pool treated (r-hFIX+VKORC1) BHK cells
Protocol: Warfarin sensitive VKOR activity was measured as described (19) by estimating the percent conversion of vitamin K1 2,3-epoxide (Vit.K>O) to vitamin K1. The vitamin and the epoxide were separated on a reversed phase C18 column in 100% methanol and quantified against external standards. VKOR activity was either triggered with 5 mM DTT or 0.32 mM reduced RNAse. Reduced bovine RNAse was prepared according to a modified method originally described by Rupp et al. (20). One hundred mg RNAse was dissolved in 500 μl of 0.2 M Tris-Acetate, 6 M guanidinium hydrochloride, pH 8.0. Seventy-two mg DTT was added and the solution was left at 37° C. for one hour. Then the pH was adjusted to 4.0 with acetic acid and DTT, Tris and guanidinium hydrochloride removed by gel filtration on a column of Sephadex G-25 equilibrated in 0.1 M acetic acid. Prior to chromatography, the column resin and the 0.1 M acetic acid were saturated with N2. The void volume fraction containing reduced RNAse was distributed into sealed 0.75 ml serum flasks filled with N2 which were stored at 4° C. until use. […] Blood clotting activities of purified r-hFIX and plasma hFIX were determined with the Activated Partial Thromboplastin Time (APPT) kit APTT-SP (liquid)-0020006300 from Instrumentation Laboratory, Lexington, Mass. […]

γ-carboxylase = assay: FLEEL γ-carboxylation in extracted rat liver microsomes triggered by reduced RNAse; assay type: biochemical; details: 40 μM vitamin K1 2,3-epoxide, no DTT
Protocol: Rat liver microsomes extracted of luminal and peripherally bound membrane proteins (see Experimental Procedures) were tested for FLEEL γ-carboxylation when the reaction was triggered by reduced RNAse (black bar) and reduced vitamin K1H2 (shaded bar). When reduced RNAse was used, the test system contained 40 μM vitamin K1 2,3-epoxide as the source of the γ-carboxylase cofactor. No DTT was present in the assays. Each bar represents the average activity of three parallel incubations. Standard deviation is shown on each bar.
For removal of microsomal luminal and peripherally bound membrane proteins, microsomes obtained from 4 g of rat liver were suspended in 8 ml of 100 mM Na2CO3, 1.2 M KCl, 0.025% deoxycholate, pH 11.5 with a Potter Elvehjelm glass homogenizer and centrifuged at 100,000×g for 45 min (14). […]
Warfarin sensitive VKOR activity was measured as described (19) by estimating the percent conversion of vitamin K1 2,3-epoxide (Vit.K>O) to vitamin K1. The vitamin and the epoxide were separated on a reversed phase C18 column in 100% methanol and quantified against external standards. […] Blood clotting activities of purified r-hFIX and plasma hFIX were determined with the Activated Partial Thromboplastin Time (APPT) kit APTT-SP (liquid)-0020006300 from Instrumentation Laboratory, Lexington, Mass. […]

Molecule | specific activity of functional r-hFIX (blood clotting activity) [units/mg] | FLEEL γ-carboxylation triggered by reduced RNAse (γ-carboxylase)
r-hFIX: functional recombinant human factor IX purified from medium of engineered BHK cells | 147 | 
B1 |  | to the same extent as chemically reduced vitamin K1H2
